Reference: article PMC10500007
Positions count from the first letter of the chain named. Numbers in names are those of the source.

T1: human integrin αvβ6 (soluble, construct not stated), P06756;P18564
T1 chain 1: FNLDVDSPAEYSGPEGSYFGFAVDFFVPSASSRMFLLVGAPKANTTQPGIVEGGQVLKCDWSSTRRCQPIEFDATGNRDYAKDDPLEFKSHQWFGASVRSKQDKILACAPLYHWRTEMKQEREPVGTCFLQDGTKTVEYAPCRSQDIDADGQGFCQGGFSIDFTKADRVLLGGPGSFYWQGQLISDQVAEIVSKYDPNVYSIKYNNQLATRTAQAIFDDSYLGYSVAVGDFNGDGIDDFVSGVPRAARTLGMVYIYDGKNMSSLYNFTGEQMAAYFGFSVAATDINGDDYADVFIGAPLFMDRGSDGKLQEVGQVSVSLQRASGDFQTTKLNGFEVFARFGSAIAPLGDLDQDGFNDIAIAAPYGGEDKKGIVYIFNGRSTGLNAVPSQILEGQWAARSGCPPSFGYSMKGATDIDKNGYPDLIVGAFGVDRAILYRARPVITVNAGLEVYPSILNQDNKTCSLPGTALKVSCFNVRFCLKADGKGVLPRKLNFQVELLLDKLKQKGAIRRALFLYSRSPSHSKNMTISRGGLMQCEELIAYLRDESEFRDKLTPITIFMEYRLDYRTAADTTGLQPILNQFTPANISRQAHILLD
T1 chain 2: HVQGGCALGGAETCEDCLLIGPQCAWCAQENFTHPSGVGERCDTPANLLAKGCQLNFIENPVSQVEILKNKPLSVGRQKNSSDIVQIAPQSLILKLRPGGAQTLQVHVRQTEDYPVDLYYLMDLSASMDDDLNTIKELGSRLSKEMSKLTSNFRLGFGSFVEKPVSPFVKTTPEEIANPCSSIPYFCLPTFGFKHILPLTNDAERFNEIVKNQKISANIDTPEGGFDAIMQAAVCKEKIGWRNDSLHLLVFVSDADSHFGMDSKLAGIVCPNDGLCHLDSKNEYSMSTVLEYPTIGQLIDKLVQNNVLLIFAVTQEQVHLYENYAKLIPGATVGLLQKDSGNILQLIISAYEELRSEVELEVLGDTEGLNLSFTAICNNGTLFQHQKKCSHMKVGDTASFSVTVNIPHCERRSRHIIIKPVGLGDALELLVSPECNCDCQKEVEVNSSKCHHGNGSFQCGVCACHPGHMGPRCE

T2: human integrin αvβ8 (soluble, construct not stated), P06756;P26012
T2 chain 1: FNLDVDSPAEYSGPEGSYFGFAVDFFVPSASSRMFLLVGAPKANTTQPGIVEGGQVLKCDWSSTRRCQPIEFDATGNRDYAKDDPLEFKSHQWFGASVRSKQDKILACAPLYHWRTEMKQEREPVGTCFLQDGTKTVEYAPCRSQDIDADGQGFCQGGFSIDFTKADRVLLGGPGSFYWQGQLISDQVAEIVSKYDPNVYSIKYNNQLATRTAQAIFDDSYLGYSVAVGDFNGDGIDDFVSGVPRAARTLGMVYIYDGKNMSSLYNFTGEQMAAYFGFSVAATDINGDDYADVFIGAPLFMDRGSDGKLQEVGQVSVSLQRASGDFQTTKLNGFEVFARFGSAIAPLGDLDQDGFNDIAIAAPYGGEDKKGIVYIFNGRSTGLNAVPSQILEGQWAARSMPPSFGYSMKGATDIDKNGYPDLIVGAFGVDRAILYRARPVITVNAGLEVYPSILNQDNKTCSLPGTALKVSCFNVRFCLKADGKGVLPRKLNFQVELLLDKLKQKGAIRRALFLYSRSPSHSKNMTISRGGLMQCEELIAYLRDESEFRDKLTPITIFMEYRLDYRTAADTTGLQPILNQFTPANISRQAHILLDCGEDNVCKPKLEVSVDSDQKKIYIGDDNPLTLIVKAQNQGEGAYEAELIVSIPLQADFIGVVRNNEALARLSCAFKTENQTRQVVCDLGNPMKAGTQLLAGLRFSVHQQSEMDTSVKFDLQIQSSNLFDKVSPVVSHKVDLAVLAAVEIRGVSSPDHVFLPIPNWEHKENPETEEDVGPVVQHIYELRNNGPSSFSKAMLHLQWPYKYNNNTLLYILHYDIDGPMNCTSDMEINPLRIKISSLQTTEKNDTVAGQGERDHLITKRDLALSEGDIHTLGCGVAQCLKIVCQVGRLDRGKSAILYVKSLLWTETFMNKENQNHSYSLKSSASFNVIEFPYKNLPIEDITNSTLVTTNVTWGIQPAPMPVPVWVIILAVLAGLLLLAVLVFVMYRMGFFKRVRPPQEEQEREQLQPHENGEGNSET
T2 chain 2: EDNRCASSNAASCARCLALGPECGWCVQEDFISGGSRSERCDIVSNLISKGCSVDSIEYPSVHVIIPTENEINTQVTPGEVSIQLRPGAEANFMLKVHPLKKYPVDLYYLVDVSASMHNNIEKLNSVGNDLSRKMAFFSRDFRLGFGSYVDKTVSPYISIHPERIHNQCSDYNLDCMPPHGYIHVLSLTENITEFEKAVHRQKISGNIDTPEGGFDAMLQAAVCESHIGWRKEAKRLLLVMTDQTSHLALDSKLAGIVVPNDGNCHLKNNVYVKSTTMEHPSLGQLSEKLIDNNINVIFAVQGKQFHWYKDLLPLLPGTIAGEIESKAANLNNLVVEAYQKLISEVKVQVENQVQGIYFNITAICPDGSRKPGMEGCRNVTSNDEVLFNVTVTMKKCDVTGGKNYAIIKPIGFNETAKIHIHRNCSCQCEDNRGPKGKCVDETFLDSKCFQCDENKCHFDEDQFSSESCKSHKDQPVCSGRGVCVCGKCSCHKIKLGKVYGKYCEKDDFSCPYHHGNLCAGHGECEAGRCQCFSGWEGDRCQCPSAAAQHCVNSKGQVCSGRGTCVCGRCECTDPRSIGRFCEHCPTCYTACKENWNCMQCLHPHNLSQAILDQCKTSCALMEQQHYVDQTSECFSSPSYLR

B1: B8_BP_dslf M13L; Y16I (protein)
chain: TKCVVRFNFRGDLAVIALKAVKDHLKKEGPHWNITTHNDDEVYLVVRGIHESDAKRIAKWVESTIPGISVETQCD
B2: B8_BP_dslf Y16I (protein)
chain: B1 chain with L13M
B3: B8_BP_dslf M13L; V15T; Y16I (protein)
chain: B1 chain with V15T
B4: B8_BP_dslf V15T; Y16I (protein)
chain: B1 chain with L13M, V15T

Columns and labels:
[1] = target: T1, human integrin αvβ6 (soluble, construct …); test: BLI; conditions: chain shown with the change;; parent: > 1000 nM
[2] = target: T2, human integrin αvβ8 (soluble, construct …); test: BLI; conditions: chain shown with the change;; parent: 1.9 nM

Row | Binder | Kd [1] [nM] | Kd [2] [nM]
1 | B1 | 0.7 | 0.3
2 | B2 |  | 0.2
3 | B3 |  | 0.3
4 | B4 |  | 0.1
